Values quoted from earlier work, collected in paper PMC5936680.

Molecular target: Hemoglobin αβ dimer (Homo sapiens) (UniProt P69905)

- Kd: 1000 nM
Substance: Hemoglobin αβ dimer (from UniProt P69905)
